Earlier results, collected in publication PMC12086256.

Target: VEGFR1 (Homo sapiens) (UniProt P17948)
Chain of UniProt P17948 (P17948 27-758): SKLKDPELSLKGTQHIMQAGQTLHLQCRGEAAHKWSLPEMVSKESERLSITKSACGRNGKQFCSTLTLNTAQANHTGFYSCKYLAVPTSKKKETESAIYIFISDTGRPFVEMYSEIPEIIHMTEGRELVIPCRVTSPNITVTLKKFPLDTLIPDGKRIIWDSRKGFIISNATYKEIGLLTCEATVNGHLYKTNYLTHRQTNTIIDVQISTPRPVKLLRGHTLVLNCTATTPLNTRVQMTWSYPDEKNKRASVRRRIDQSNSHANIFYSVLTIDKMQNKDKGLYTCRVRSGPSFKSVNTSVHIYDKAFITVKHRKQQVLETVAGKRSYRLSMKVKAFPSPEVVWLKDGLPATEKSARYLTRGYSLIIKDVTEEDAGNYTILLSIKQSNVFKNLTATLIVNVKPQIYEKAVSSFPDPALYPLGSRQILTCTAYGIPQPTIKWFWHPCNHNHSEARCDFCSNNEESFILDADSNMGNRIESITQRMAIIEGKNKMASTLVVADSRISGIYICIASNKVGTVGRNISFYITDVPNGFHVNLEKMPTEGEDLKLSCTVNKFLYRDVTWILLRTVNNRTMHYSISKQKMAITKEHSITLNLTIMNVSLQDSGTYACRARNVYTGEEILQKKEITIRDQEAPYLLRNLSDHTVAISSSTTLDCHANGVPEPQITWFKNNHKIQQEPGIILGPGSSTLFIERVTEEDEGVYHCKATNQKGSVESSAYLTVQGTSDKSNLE

Kd: 2 nM
Substance: VEGF-B167 (from UniProt P49765)
